Test results from patent US20230111212A1, “MUSCLE TARGETING COMPLEXES AND USES THEREOF FOR TREATING DYSTROPHINOPATHIES” (Dyne Therapeutics, Inc., priority 2020, published 2023).
pKd: −log10 of the molar value.

How the values were obtained:
[1] = target: human transferrin receptor 1 (human) (UniProt P02786); test: Carterra LSA at 25C, IgG captured on anti-IgG lawn, hTfR1 injected, 1:1 Langmuir fit
[2] = target: human transferrin receptor 2 (human) (UniProt Q9UP52); test: ELISA on human TfR2, RFU
Chain of human transferrin receptor 2 (human) (Q9UP52 105-801 limits assumed): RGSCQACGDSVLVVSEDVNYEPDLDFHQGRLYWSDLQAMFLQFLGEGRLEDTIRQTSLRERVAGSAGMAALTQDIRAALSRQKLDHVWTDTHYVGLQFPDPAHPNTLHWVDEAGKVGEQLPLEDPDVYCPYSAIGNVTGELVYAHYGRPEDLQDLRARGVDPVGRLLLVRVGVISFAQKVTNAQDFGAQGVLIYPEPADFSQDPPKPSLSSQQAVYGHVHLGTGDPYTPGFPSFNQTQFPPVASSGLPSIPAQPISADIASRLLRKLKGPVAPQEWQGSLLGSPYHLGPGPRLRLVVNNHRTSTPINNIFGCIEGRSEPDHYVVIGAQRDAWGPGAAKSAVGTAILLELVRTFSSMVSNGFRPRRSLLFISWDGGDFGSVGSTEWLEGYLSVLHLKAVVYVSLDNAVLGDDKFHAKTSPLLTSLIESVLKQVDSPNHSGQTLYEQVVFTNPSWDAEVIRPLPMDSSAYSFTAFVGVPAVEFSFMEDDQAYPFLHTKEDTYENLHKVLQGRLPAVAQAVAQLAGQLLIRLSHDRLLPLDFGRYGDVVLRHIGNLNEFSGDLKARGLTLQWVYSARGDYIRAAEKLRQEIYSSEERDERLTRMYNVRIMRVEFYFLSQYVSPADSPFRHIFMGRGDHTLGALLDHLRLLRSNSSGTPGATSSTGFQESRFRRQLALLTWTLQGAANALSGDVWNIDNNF

Chain of human transferrin receptor 1 (human) (P02786 89-760 limits assumed): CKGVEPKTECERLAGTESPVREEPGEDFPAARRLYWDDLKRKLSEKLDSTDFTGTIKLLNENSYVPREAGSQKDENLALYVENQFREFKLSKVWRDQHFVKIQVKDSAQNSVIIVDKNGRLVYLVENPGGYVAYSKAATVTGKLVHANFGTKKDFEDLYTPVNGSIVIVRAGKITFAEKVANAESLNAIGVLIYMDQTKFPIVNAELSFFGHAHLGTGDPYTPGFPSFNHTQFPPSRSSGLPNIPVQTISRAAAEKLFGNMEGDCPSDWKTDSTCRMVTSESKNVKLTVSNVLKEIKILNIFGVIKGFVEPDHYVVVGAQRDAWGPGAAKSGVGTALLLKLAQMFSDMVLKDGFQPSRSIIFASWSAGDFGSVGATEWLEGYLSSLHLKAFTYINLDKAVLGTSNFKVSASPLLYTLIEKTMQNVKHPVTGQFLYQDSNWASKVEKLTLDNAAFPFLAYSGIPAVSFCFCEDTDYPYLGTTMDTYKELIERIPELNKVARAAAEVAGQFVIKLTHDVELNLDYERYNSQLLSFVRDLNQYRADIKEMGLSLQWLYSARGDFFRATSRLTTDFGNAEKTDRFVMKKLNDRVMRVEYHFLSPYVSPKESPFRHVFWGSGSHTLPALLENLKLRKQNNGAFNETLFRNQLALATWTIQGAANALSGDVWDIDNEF

| Substance | pKd [1] | kon [1] [M⁻¹ s⁻¹] | EC50 (read off the curve) [2] [nM] |
| --- | --- | --- | --- |
| OKT9 mIgG (antibody) | 9.27 | 774000 | – |
| TfR2 Monoclonal Antibody (OTI1B1) | – | – | 2 |
